# B1: OR3A1 (parent)
# chain: PMYFFLGNLSVLDVGCISVTVPSM
# B2: RTP4 (parent)
# chain: AFGWFRCSSCQRSWASAQVQILCH
# Variants of: B1
# Experiment: protein stability index of a GFP-peptide fusion (GPS, HEK-293T) (PSI 1-6); higher = more stable
# Conditions: c terminus: a fixed tail appended
# 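Note: lentivirally expressed fusions sorted by FACS into six bins by GFP to DsRed ratio, PSI derived from sequencing read proportions per bin multiplied by bin number.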
row,Variant,protein stability index
1,PKYFFLGNLSVLDVGCISVTVPSM [M2K],3.24
2,PTYFFLGNLSVLDVGCISVTVPSM [M2T],2.15
3,PIYFFLGNLSVLDVGCISVTVPSM [M2I],2.31

# Variants of: B2
# Experiment: as above
# Conditions: c terminus: a fixed tail appended
row,Variant,protein stability index
1,AFGWFRCSSCQRSFASAQVQILCH [W14F],3.1
2,AFGWFRCSSCQRSRASAQVQILCH [W14R],1.48
3,AFGWFRCSSCQRSHASAQVQILCH [W14H],1.95
4,AFGWFRCSSCQRSIASAQVQILCH [W14I],2.21
5,AFGWFRCSSCQRSVASAQVQILCH [W14V],1.36
6,AFGWFRCSSCQRSWASAQVQIPCH [L22P],3.05
7,AFGWFRCSSCQRSWASAQVQIHCH [L22H],2.13
8,AFGWFRCSSCQRSWASAQVQIWCH [L22W],2.17
9,AFGWFRCSSCQRSWASAQVQITCH [L22T],1.65
10,AFGWFRCSSCQRSWASAQVQIMCH [L22M],1.32
11,AFGWFRCSSCQRSWASAQVQILRH [C23R],1.49
12,AFGWFRCSSCQRSWASAQVQILHH [C23H],1.84
13,AFGWFRCSSCQRSWASAQVQILDH [C23D],1.92
14,AFGYFRCSSCQRSWASAQVQILCH [W4Y],2.37
15,AFGGFRCSSCQRSWASAQVQILCH [W4G],3.48
16,AFGLFRCSSCQRSWASAQVQILCH [W4L],1.67
17,AFGEFRCSSCQRSWASAQVQILCH [W4E],1.91
18,AFGTFRCSSCQRSWASAQVQILCH [W4T],1.47
19,AFGWFRCSSCQRSWASACVQILCH [Q18C],3.51
20,AFGWFRCSSCQRSWASADVQILCH [Q18D],2.22
21,AFGWFRCSSCQRSWASAWVQILCH [Q18W],2.88
22,AFGWFRCSSCQRSWASATVQILCH [Q18T],1.57
23,AFGWFRCSSCQRSWASAHVQILCH [Q18H],2.68

row,Variant,protein stability index
1,AFGWFRCSSFQRSWASAQVQILCH [C10F],3.06
2,AFGWFRCSSGQRSWASAQVQILCH [C10G],3.33
3,AFGWFRCSSCQRSWYSAQVQILCH [A15Y],2.87
4,AFGWFRCSSCQRSWNSAQVQILCH [A15N],4.46
5,AFGWFRCSSCQRSWWSAQVQILCH [A15W],2.79
6,AFGWFRCSSCQRIWASAQVQILCH [S13I],1.36
7,AFGWFRCSSCQRLWASAQVQILCH [S13L],1.69
8,AFGWFRCSSCQRHWASAQVQILCH [S13H],2.36
9,AFGWFRCSPCQRSWASAQVQILCH [S9P],2.5
10,AFGWFRCSQCQRSWASAQVQILCH [S9Q],2.35
11,AFGWFRCSVCQRSWASAQVQILCH [S9V],1.64
12,AFGWFRCSNCQRSWASAQVQILCH [S9N],2.39
13,AFGWFRCSYCQRSWASAQVQILCH [S9Y],3.01
14,AFGWFFCSSCQRSWASAQVQILCH [R6F],1.93
15,AFGWFLCSSCQRSWASAQVQILCH [R6L],3.45
16,AFGWFACSSCQRSWASAQVQILCH [R6A],2.65
17,AFGWFCCSSCQRSWASAQVQILCH [R6C],2.07
18,AFGWFRCSSCQRSWASAQGQILCH [V19G],2.58
19,AFGWFRCSSCQRSWASAQRQILCH [V19R],2.36
20,AFGWFRCSSCQRSWASAQCQILCH [V19C],1.56
21,AFGWFRCSSCQRSWASAQEQILCH [V19E],2.23
22,AFGWFRCSSCQRSWASAQFQILCH [V19F],3.22
23,AFGWFRCSSCQRSWASAQYQILCH [V19Y],3.2

row,Variant,protein stability index
1,AFGWFRCSSCQRSWASAQPQILCH [V19P],1.35
2,AFGWFRCSSCQRSWASAQKQILCH [V19K],1.67
3,AFGWFRCSSCQRSWASAQVIILCH [Q20I],2.42
4,AFGWFRCSSCQRSWASAQVNILCH [Q20N],2.4
5,AFGWFRCSSCQRSWASAQVSILCH [Q20S],2.84
6,AFGWFRCSSCQRSWASAQVHILCH [Q20H],2.97
7,AFGWFRCSSCQRSWASAQVPILCH [Q20P],3.22
8,AFGWFRCSSCQRSWASAQVDILCH [Q20D],1.66
9,AFGWFRCSSCQRSWASAQVQILCV [H24V],4.55
10,AFGWFRCSSCQRSWASAQVQILCP [H24P],3.58
11,AFGWFRCSSCQRSWASAQVQILCK [H24K],1.83
12,AFGWFRCSSCQRSWASAQVQILCF [H24F],3.12
13,LFGWFRCSSCQRSWASAQVQILCH [A1L],2.49
14,KFGWFRCSSCQRSWASAQVQILCH [A1K],3.61
15,MFGWFRCSSCQRSWASAQVQILCH [A1M],2.42
16,VFGWFRCSSCQRSWASAQVQILCH [A1V],2.11
17,AFGWFRCSSCKRSWASAQVQILCH [Q11K],3.01
18,AFGWFRCSSCTRSWASAQVQILCH [Q11T],3.55
19,AFGWFRCSSCHRSWASAQVQILCH [Q11H],2.43
20,AFGWFRCSSCRRSWASAQVQILCH [Q11R],2.89
21,AFGWFRCSSCNRSWASAQVQILCH [Q11N],2.49
22,AFGWFRCSSCPRSWASAQVQILCH [Q11P],2.27
23,AFGWFRCSSCQRSWASAQVQQLCH [I21Q],1.62

row,Variant,protein stability index
1,AFGWFRCSSCQRSWASAQVQRLCH [I21R],1.72
2,AFGWFRCSSCQRSWASAQVQSLCH [I21S],3.43
3,AFPWFRCSSCQRSWASAQVQILCH [G3P],3.37
4,AFDWFRCSSCQRSWASAQVQILCH [G3D],1.45
5,AFGWFRCSSCQRSWASWQVQILCH [A17W],2.94
6,AFGWFRCSSCQRSWASIQVQILCH [A17I],3.06
7,AFGWFRCSSCQRSWASNQVQILCH [A17N],1.65
8,AFGWFRCSSCQRSWASVQVQILCH [A17V],2.19
9,AFGWFRCSSCQRSWASEQVQILCH [A17E],2.93
10,AFGWFRCSSCQDSWASAQVQILCH [R12D],2.1
11,AFGWFRCSSCQPSWASAQVQILCH [R12P],3.2
12,AFGWFRCSSCQYSWASAQVQILCH [R12Y],2.83
13,AFGWFRCSSCQISWASAQVQILCH [R12I],2.33
14,AFGWFRCVSCQRSWASAQVQILCH [S8V],3.2
15,AFGWFRCESCQRSWASAQVQILCH [S8E],1.83
16,AFGWFRCSSCQRSWAIAQVQILCH [S16I],2.64
17,AFGWFRCSSCQRSWAAAQVQILCH [S16A],2.73
18,AFGWFRCSSCQRSWARAQVQILCH [S16R],2.79
19,AFGWFRCSSCQRSWAGAQVQILCH [S16G],1.75
20,ADGWFRCSSCQRSWASAQVQILCH [F2D],2.56
21,AFGWFRVSSCQRSWASAQVQILCH [C7V],3.3
22,AFGWKRCSSCQRSWASAQVQILCH [F5K],3.49
